Series [1] can be described thus: Pharmacokinetics of orally dosed insulin emulsion particles in STZ-treated rats (Example 3), plasma insulin. The following applies: 5 IU/kg s.c. control. The source says:
Parameters were estimated using Watson pharmacokinetic software 7.4.2 (Thermo Electron Corporation) using a non-compartmental approach consistent with the various routes of administration. All parameters were generated from Insulin individual animal concentrations in plasma. Parameters were estimated using nominal sampling times to be relative to the start of each dose administration (within an acceptable tolerance limit).
The area under the test item concentration versus time curve (AUC) was calculated using the linear-log linear trapezoidal method. AUC was not calculated for PK profiles with less than 3 consecutive quantifiable concentrations of test article at separate time points. When practical, the terminal elimination phase of each concentration versus time curve was identified using at least the final three observed concentration values. The slope of the terminal elimination phase was determined using linear regression on the unweighted concentration data. […] The parameters described below were reported to 3 significant figures.

In series [2] the test system is blood glucose. Nature of the series: Blood glucose after dosing in STZ type I diabetes model (Example 3). Format: in vivo, Sprague-Dawley(SD) rats. The following applies: 5 IU/kg s.c. control.
Procedure: Animals were monitored for blood glucose levels daily over 10 days using a handheld glucometer to verify the disruption of insulin production. […] Prior to the experimental procedure, animals were weighed and randomized into groups based on body weight. All rats were then fasted for five hours prior to dosing.
Control animals were given 5 IU/kg s.c. or 2.5 IU/kg i.v., while experimental animals were dosed orally with 50 IU/kg of microemulsion particles. Food was returned immediately post-dosage and blood was collected at the indicated time points (15, 30, 30, 60, 90, 120, 150, 180, 210, 240, 270, 300, 480, 720, and 1440) over a 24 hr. period. Whole blood was processed to plasma and analyzed for insulin quantity.
Mean insulin and glucose concentrations from the blood of animals were assessed following dosing of 5 IU/kg subcutaneous insulin, 50 IU/kg per os (p.o., i.e., orally) administered TA-3 (BCC with zinc), 50 IU/kg p.o. administered TA-4 (zinc without BCC), and 50 IU/kg p.o. administered TA-7 (BCC without zinc).
For series [3], the system named is blood glucose. The series is described as follows: Blood glucose after dosing in STZ type I diabetes model (Example 5). It counts as in vivo, Sprague-Dawley(SD) rats. Conditions: 5 IU/kg s.c. control.
The conditions of series [4]: in 0.01N HCl; cited from earlier work.

For orientation: solubility means the dissolved amount per volume that the medium holds. For insulin, the “blood insulin levels after s.c. administration” value in series [1] was “rapid appearance and peak of insulin in the blood”. Further, in series [2], the “blood glucose after s.c. administration” value is given as “corresponding declines in blood glucose”. In series [3], the “blood glucose concentrations after s.c. injection” value is “drop in blood glucose concentrations beginning just as insulin is detected in the blood”. Moreover, the solubility in series [4] was 20 mg/mL.
